A value given as a limit tells only on which side of the number the result lay.

The target in one experiment is 凝血酶A (thrombin A). Nature of the experiment: cell-based or functional assay.
Experiment [1] concerns the target 胰蛋白酶、人类胰酶 (trypsin, human pancreas) (human) (UniProt P07477). Nature of the experiment: cell-based or functional assay.
Experiment [2] concerns the target 人类血浆激肽释放酶 (human plasma kallikrein) (human) (UniProt P03952). Nature of the experiment: cell-based or functional assay.
The target in another experiment is 丝氨酸穿膜蛋白酶. The experiment is described as follows: cell-based or functional assay.
For experiment [3], the target named is 人类血浆激肽释放酶 (human plasma kallikrein) (human) (UniProt P03952). Nature of the experiment: SPR, 37 C, pH 7.4 or pH 6.0.
For experiment [4] the target is unchanged. The experiment is described as follows: SPR, 37 C, pH 7.4. In general terms: SPR reads the build-up and loss of mass on a sensor chip optically.
For experiment [5] the target is unchanged. Nature of the experiment: SPR, 37 C, pH 6.0.
For experiment [6] the target is unchanged. Nature of the experiment: SPR, 37 C, pH 6 against pH 7.4.

Sequence of UniProt P03952 (P03952 20-390 S143N limits assumed, chain 1 of 2): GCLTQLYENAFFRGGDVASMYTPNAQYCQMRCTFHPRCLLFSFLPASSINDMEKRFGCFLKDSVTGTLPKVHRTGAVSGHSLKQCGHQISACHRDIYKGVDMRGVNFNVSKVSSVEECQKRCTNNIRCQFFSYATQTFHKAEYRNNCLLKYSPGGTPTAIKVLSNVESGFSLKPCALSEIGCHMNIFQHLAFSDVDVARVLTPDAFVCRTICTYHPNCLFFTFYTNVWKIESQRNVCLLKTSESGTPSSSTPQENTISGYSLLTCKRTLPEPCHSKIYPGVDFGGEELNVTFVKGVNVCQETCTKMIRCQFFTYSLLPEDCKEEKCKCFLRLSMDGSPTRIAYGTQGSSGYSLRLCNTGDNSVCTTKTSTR
Sequence of UniProt P03952 (P03952 391-638 limits assumed, chain 2 of 2): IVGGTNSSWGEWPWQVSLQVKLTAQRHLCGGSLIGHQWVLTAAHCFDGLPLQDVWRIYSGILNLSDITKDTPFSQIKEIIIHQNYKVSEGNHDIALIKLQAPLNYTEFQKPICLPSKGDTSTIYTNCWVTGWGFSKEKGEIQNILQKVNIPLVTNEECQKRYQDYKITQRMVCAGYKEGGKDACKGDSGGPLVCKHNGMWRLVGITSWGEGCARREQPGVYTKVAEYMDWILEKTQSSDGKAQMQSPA

In the case of DX-2930 (antibody), the 丝氨酸蛋白酶抑制分析，IC50 with 凝血酶A (thrombin A) and with 丝氨酸穿膜蛋白酶 was > 1000 nM throughout. This substance showed a 胰蛋白酶抑制分析，IC50 in experiment [1] of 243 to 376 nM. The substance also came in with an IC90，HMWK功能分析 in experiment [2] of 300 nM. For the same substance, in experiment [3], the fold affinity for plasma kallikrein over prekallikrein was > 1000 倍. The figures for the Kd in experiment [4] and in experiment [5] were 18 nM and 236 nM, respectively. The fold change of KD between pH 6 and pH 7.4 in experiment [6] was > 10 倍.

For the origin of these results see CN116829596A.
